Measurements taken from patent US20160272683A1 (Novo Nordisk, published 2016).
Numbered stars: 1 amine (or outer) side, 2 acyl side, 3 side chain; on linkers, the order of the positions; unused ones are H or OH. * marks the point of attachment. C20 diacid = O=C(O)CCCCCCCCCCCCCCCCCCC(=O)*; C18 diacid = O=C(O)CCCCCCCCCCCCCCCCC(=O)*; γGlu = O=C(O)[C@H](CCC(=O)[*:2])N[*:1]

B1: [N-terminal(C20 diacid-gGlu), des1, 9T, 21S, 23Y, 30S, 31G]mimylin (peptide)
peptide: {C20 diacid-γGlu}-ASELSTATLGRLSAELHELSTYPRTETGSGSP-NH2
SMILES: CC(C)C[C@H](NC(=O)[C@H](CCCNC(=N)N)NC(=O)CNC(=O)[C@H](CC(C)C)NC(=O)[C@@H](NC(=O)[C@H](C)NC(=O)[C@@H](NC(=O)[C@H](CO)NC(=O)[C@H](CC(C)C)NC(=O)[C@H](CCC(=O)O)NC(=O)[C@H](CO)NC(=O)[C@H](C)NC(=O)CC[C@H](NC(=O)CCCCCCCCCCCCCCCCCCC(=O)O)C(=O)O)[C@@H](C)O)[C@@H](C)O)C(=O)N[C@@H](CO)C(=O)N[C@@H](C)C(=O)N[C@@H](CCC(=O)O)C(=O)N[C@@H](CC(C)C)C(=O)N[C@@H](Cc1c[nH]cn1)C(=O)N[C@@H](CCC(=O)O)C(=O)N[C@@H](CC(C)C)C(=O)N[C@@H](CO)C(=O)N[C@H](C(=O)N[C@@H](Cc1ccc(O)cc1)C(=O)N1CCC[C@H]1C(=O)N[C@@H](CCCNC(=N)N)C(=O)N[C@H](C(=O)N[C@@H](CCC(=O)O)C(=O)N[C@H](C(=O)NCC(=O)N[C@@H](CO)C(=O)NCC(=O)N[C@@H](CO)C(=O)N1CCC[C@H]1C(N)=O)[C@@H](C)O)[C@@H](C)O)[C@@H](C)O
B2: [N-terminal(C20 diacid-gGlu), des1, 4G, 9V, 23Y, 30S, 31G, 32T]mimylin (peptide)
peptide: {C20 diacid-γGlu}-ASGLSTAVLGRLSAELHELATYPRTETGSGTP-NH2
SMILES: CC(C)C[C@H](NC(=O)CNC(=O)[C@H](CO)NC(=O)[C@H](C)NC(=O)CC[C@H](NC(=O)CCCCCCCCCCCCCCCCCCC(=O)O)C(=O)O)C(=O)N[C@@H](CO)C(=O)N[C@H](C(=O)N[C@@H](C)C(=O)N[C@H](C(=O)N[C@@H](CC(C)C)C(=O)NCC(=O)N[C@@H](CCCNC(=N)N)C(=O)N[C@@H](CC(C)C)C(=O)N[C@@H](CO)C(=O)N[C@@H](C)C(=O)N[C@@H](CCC(=O)O)C(=O)N[C@@H](CC(C)C)C(=O)N[C@@H](Cc1c[nH]cn1)C(=O)N[C@@H](CCC(=O)O)C(=O)N[C@@H](CC(C)C)C(=O)N[C@@H](C)C(=O)N[C@H](C(=O)N[C@@H](Cc1ccc(O)cc1)C(=O)N1CCC[C@H]1C(=O)N[C@@H](CCCNC(=N)N)C(=O)N[C@H](C(=O)N[C@@H](CCC(=O)O)C(=O)N[C@H](C(=O)NCC(=O)N[C@@H](CO)C(=O)NCC(=O)N[C@H](C(=O)N1CCC[C@H]1C(N)=O)[C@@H](C)O)[C@@H](C)O)[C@@H](C)O)[C@@H](C)O)C(C)C)[C@@H](C)O
B3: [N-terminal(C18 diacid-gGlu), des1, 5V, 9V, 10V, 30S, 31G]mimylin (peptide)
peptide: {C18 diacid-γGlu}-ASEVSTAVVGRLSAELHELATLPRTETGSGSP-NH2
SMILES: CC(C)C[C@H](NC(=O)[C@H](CCC(=O)O)NC(=O)[C@H](Cc1c[nH]cn1)NC(=O)[C@H](CC(C)C)NC(=O)[C@H](CCC(=O)O)NC(=O)[C@H](C)NC(=O)[C@H](CO)NC(=O)[C@H](CC(C)C)NC(=O)[C@H](CCCNC(=N)N)NC(=O)CNC(=O)[C@@H](NC(=O)[C@@H](NC(=O)[C@H](C)NC(=O)[C@@H](NC(=O)[C@H](CO)NC(=O)[C@@H](NC(=O)[C@H](CCC(=O)O)NC(=O)[C@H](CO)NC(=O)[C@H](C)NC(=O)CC[C@H](NC(=O)CCCCCCCCCCCCCCCCC(=O)O)C(=O)O)C(C)C)[C@@H](C)O)C(C)C)C(C)C)C(=O)N[C@@H](C)C(=O)N[C@H](C(=O)N[C@@H](CC(C)C)C(=O)N1CCC[C@H]1C(=O)N[C@@H](CCCNC(=N)N)C(=O)N[C@H](C(=O)N[C@@H](CCC(=O)O)C(=O)N[C@H](C(=O)NCC(=O)N[C@@H](CO)C(=O)NCC(=O)N[C@@H](CO)C(=O)N1CCC[C@H]1C(N)=O)[C@@H](C)O)[C@@H](C)O)[C@@H](C)O
B4: [N-terminal(C20 diacid-gGlu), des1, 9S, 23Y, 30S, 31G, 33Y]mimylin (peptide)
peptide: {C20 diacid-γGlu}-ASELSTASLGRLSAELHELATYPRTETGSGSY-NH2
SMILES: CC(C)C[C@H](NC(=O)[C@H](CO)NC(=O)[C@H](C)NC(=O)[C@@H](NC(=O)[C@H](CO)NC(=O)[C@H](CC(C)C)NC(=O)[C@H](CCC(=O)O)NC(=O)[C@H](CO)NC(=O)[C@H](C)NC(=O)CC[C@H](NC(=O)CCCCCCCCCCCCCCCCCCC(=O)O)C(=O)O)[C@@H](C)O)C(=O)NCC(=O)N[C@@H](CCCNC(=N)N)C(=O)N[C@@H](CC(C)C)C(=O)N[C@@H](CO)C(=O)N[C@@H](C)C(=O)N[C@@H](CCC(=O)O)C(=O)N[C@@H](CC(C)C)C(=O)N[C@@H](Cc1c[nH]cn1)C(=O)N[C@@H](CCC(=O)O)C(=O)N[C@@H](CC(C)C)C(=O)N[C@@H](C)C(=O)N[C@H](C(=O)N[C@@H](Cc1ccc(O)cc1)C(=O)N1CCC[C@H]1C(=O)N[C@@H](CCCNC(=N)N)C(=O)N[C@H](C(=O)N[C@@H](CCC(=O)O)C(=O)N[C@H](C(=O)NCC(=O)N[C@@H](CO)C(=O)NCC(=O)N[C@@H](CO)C(=O)N[C@@H](Cc1ccc(O)cc1)C(N)=O)[C@@H](C)O)[C@@H](C)O)[C@@H](C)O
B5: [N-terminal(C20 diacid-gGlu), des1, 12H, 25H, 30T, 31G, 32T]mimylin (peptide)
peptide: {C20 diacid-γGlu}-ASELSTAALGHLSAELHELATLPHTETGTGTP-NH2
SMILES: CC(C)C[C@H](NC(=O)[C@H](C)NC(=O)[C@H](C)NC(=O)[C@@H](NC(=O)[C@H](CO)NC(=O)[C@H](CC(C)C)NC(=O)[C@H](CCC(=O)O)NC(=O)[C@H](CO)NC(=O)[C@H](C)NC(=O)CC[C@H](NC(=O)CCCCCCCCCCCCCCCCCCC(=O)O)C(=O)O)[C@@H](C)O)C(=O)NCC(=O)N[C@@H](Cc1c[nH]cn1)C(=O)N[C@@H](CC(C)C)C(=O)N[C@@H](CO)C(=O)N[C@@H](C)C(=O)N[C@@H](CCC(=O)O)C(=O)N[C@@H](CC(C)C)C(=O)N[C@@H](Cc1c[nH]cn1)C(=O)N[C@@H](CCC(=O)O)C(=O)N[C@@H](CC(C)C)C(=O)N[C@@H](C)C(=O)N[C@H](C(=O)N[C@@H](CC(C)C)C(=O)N1CCC[C@H]1C(=O)N[C@@H](Cc1c[nH]cn1)C(=O)N[C@H](C(=O)N[C@@H](CCC(=O)O)C(=O)N[C@H](C(=O)NCC(=O)N[C@H](C(=O)NCC(=O)N[C@H](C(=O)N1CCC[C@H]1C(N)=O)[C@@H](C)O)[C@@H](C)O)[C@@H](C)O)[C@@H](C)O)[C@@H](C)O
B6: [N-terminal(C20 diacid-gGlu), des1, 21S, 23Y, 30S, 31G, 33Y]mimylin (peptide)
peptide: {C20 diacid-γGlu}-ASELSTAALGRLSAELHELSTYPRTETGSGSY-NH2
SMILES: CC(C)C[C@H](NC(=O)[C@H](C)NC(=O)[C@H](C)NC(=O)[C@@H](NC(=O)[C@H](CO)NC(=O)[C@H](CC(C)C)NC(=O)[C@H](CCC(=O)O)NC(=O)[C@H](CO)NC(=O)[C@H](C)NC(=O)CC[C@H](NC(=O)CCCCCCCCCCCCCCCCCCC(=O)O)C(=O)O)[C@@H](C)O)C(=O)NCC(=O)N[C@@H](CCCNC(=N)N)C(=O)N[C@@H](CC(C)C)C(=O)N[C@@H](CO)C(=O)N[C@@H](C)C(=O)N[C@@H](CCC(=O)O)C(=O)N[C@@H](CC(C)C)C(=O)N[C@@H](Cc1c[nH]cn1)C(=O)N[C@@H](CCC(=O)O)C(=O)N[C@@H](CC(C)C)C(=O)N[C@@H](CO)C(=O)N[C@H](C(=O)N[C@@H](Cc1ccc(O)cc1)C(=O)N1CCC[C@H]1C(=O)N[C@@H](CCCNC(=N)N)C(=O)N[C@H](C(=O)N[C@@H](CCC(=O)O)C(=O)N[C@H](C(=O)NCC(=O)N[C@@H](CO)C(=O)NCC(=O)N[C@@H](CO)C(=O)N[C@@H](Cc1ccc(O)cc1)C(N)=O)[C@@H](C)O)[C@@H](C)O)[C@@H](C)O
B7: [N-terminal(C20 diacid-gGlu), des1, 23Y, 30S, 31G, 34K, C-terminal(-)]mimylin (peptide)
peptide: {C20 diacid-γGlu}-ASELSTAALGRLSAELHELATYPRTETGSGSPK-OH
SMILES: CC(C)C[C@H](NC(=O)[C@H](C)NC(=O)[C@H](C)NC(=O)[C@@H](NC(=O)[C@H](CO)NC(=O)[C@H](CC(C)C)NC(=O)[C@H](CCC(=O)O)NC(=O)[C@H](CO)NC(=O)[C@H](C)NC(=O)CC[C@H](NC(=O)CCCCCCCCCCCCCCCCCCC(=O)O)C(=O)O)[C@@H](C)O)C(=O)NCC(=O)N[C@@H](CCCNC(=N)N)C(=O)N[C@@H](CC(C)C)C(=O)N[C@@H](CO)C(=O)N[C@@H](C)C(=O)N[C@@H](CCC(=O)O)C(=O)N[C@@H](CC(C)C)C(=O)N[C@@H](Cc1c[nH]cn1)C(=O)N[C@@H](CCC(=O)O)C(=O)N[C@@H](CC(C)C)C(=O)N[C@@H](C)C(=O)N[C@H](C(=O)N[C@@H](Cc1ccc(O)cc1)C(=O)N1CCC[C@H]1C(=O)N[C@@H](CCCNC(=N)N)C(=O)N[C@H](C(=O)N[C@@H](CCC(=O)O)C(=O)N[C@H](C(=O)NCC(=O)N[C@@H](CO)C(=O)NCC(=O)N[C@@H](CO)C(=O)N1CCC[C@H]1C(=O)N[C@@H](CCCCN)C(=O)O)[C@@H](C)O)[C@@H](C)O)[C@@H](C)O

Target: T1, human calcitonin receptor on BHK570/CRE-luc cells (human, UniProt P30988 25-474)
T1 sequence (looked up): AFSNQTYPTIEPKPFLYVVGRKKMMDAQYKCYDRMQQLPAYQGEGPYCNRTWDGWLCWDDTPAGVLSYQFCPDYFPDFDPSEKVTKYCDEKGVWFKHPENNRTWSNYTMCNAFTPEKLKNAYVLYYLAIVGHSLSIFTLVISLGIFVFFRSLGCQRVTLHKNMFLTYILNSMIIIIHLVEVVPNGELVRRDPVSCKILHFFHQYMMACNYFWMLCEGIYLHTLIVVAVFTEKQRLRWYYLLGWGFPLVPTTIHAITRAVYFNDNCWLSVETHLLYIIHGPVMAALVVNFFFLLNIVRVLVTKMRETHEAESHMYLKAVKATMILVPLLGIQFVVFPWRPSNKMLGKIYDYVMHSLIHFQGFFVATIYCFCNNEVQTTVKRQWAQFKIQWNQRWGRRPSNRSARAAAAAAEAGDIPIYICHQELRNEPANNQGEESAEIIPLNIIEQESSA
Test: cell-based or functional assay

Row | Binder | hCTR funct. EC50 (pM), tested with HSA [pM]
1 | {C18 diacid-γGlu}-ASELTTAVLGRLSAELHELATLPRTETGTGTP-NH2 [[N-terminal(C18 diacid-gGlu), des1, 6T, 9V, 30T, 31G, 32T]mimylin] | 13
2 | B1 | 105
3 | B2 | 35
4 | B3 | 11
5 | {C18 diacid-γGlu}-ASELTTAVLGRLSAELHELATLPRTETGSGTP-NH2 [[N-terminal(C18 diacid-gGlu), des1, 6T, 9V, 30S, 31G, 32T]mimylin] | 75
6 | B4 | 42
7 | B5 | 109
8 | B6 | 48
9 | B7 | 53

Target: T2, human amylin 3(a) receptor (human calcitonin receptor co-expressed with RAMP-3) on BHK570/CRE-luc cells (human, UniProt P30988 25-474; O60896 24-148)
T2 sequence (looked up) 1: T1 sequence (looked up)
T2 sequence (looked up) 2: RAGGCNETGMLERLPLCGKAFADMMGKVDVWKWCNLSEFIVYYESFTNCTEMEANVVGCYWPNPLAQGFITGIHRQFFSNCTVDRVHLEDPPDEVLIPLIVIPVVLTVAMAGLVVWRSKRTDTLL
Test: cell-based or functional assay

Row | Binder | hAmylin-R funct. EC50 (pM), tested with HSA [pM]
10 | {C18 diacid-γGlu}-ASELTTAVLGRLSAELHELATLPRTETGTGTP-NH2 [[N-terminal(C18 diacid-gGlu), des1, 6T, 9V, 30T, 31G, 32T]mimylin] | 52
11 | B1 | 150
12 | B2 | 66
13 | B3 | 38
14 | {C18 diacid-γGlu}-ASELTTAVLGRLSAELHELATLPRTETGSGTP-NH2 [[N-terminal(C18 diacid-gGlu), des1, 6T, 9V, 30S, 31G, 32T]mimylin] | 30
15 | B4 | 81
16 | B5 | 729
17 | B6 | 64
18 | B7 | 209
